Assay results taken from publication PMC5400505, “Dissection of the interaction between the intrinsically disordered YAP protein and the transcription factor TEAD” (eLife, 2017).
Changes are numbered by the printed parent chain. Names and notes keep the numbering of the source.

B1: N-terminally V5-tagged hTEAD4 Asp272Ala (natural protein, human, UniProt Q15561 1-434, looked up)
chain: MEGTAGTITSNEWSSPTSPEGSTASGGSQALDKPIDNDAEGVWSPDIEQSFQEALAIYPPCGRRKIILSDEGKMYGRNELIARYIKLRTGKTRTRKQVSSHIQVLARRKAREIQAKLKDQAAKDKALQSMAAMSSAQIISATAFHSSMALARGPGRPAVSGFWQGALPGQAGTSHDVKPFSQQTYAVQPPLPLPGFESPAGPAPSPSAPPAPPWQGRSVASSKLWMLEFSAFLEQQQDPDTYNKHLFVHIGQSSPSYSDPYLEAVDIRQIYAKFPEKKGGLKDLFERGPSNAFFLVKFWADLNTNIEDEGSSFYGVSSQYESPENMIITCSTKVCSFGKQVVEKVETEYARYENGHYSYRIHRSPLCEYMINFIHKLKHLPEKYMMNSVLENFTILQVVTNRDTQETLLCIAYVFEVSASEHGAQHHIYRLVKE
B2: wt hYAP^50-171 (domain or fragment, human, UniProt P46937-1 50-171, looked up)
chain: AGHQIVHVRGDSETDLEALFNAVMNPKTANVPQTVPMRLRKLPDSFFKPPEPKSHSRQASTDAGTAGALTPQHVRAHSSPASLQLGAVSPGTLTPTGVVSGPAATPTAQHLRQSSFEIPDDV
notes: YAP (Yes-associated protein), human, residues 50-171 of NM_001130145.2; also called hYAP wt; Wild type; source: E. coli NiCo21 (DE3), purified (HisTrap, tag cleaved by HRV 3C protease, Resource S, Superdex 75); not shown: His6, N-terminal, cleaved
B3: hYAP^50-171 Arg89Ala (domain or fragment, human, UniProt P46937-1 50-171, looked up)
chain: B2 chain with R40A
notes: YAP (Yes-associated protein), human, residues 50-171 of NM_001130145.2; also called hYAP Arg89Ala; R89A; source: E. coli NiCo21 (DE3), purified (HisTrap, tag cleaved by HRV 3C protease, Resource S, Superdex 75); not shown: His6, N-terminal, cleaved
B4: hYAP^50-171 Leu65Ala (domain or fragment, human, UniProt P46937-1 50-171, looked up)
chain: B2 chain with L16A
notes: YAP (Yes-associated protein), human, residues 50-171 of NM_001130145.2; also called hYAP Leu65Ala; source: E. coli NiCo21 (DE3), purified (HisTrap, tag cleaved by HRV 3C protease, Resource S, Superdex 75); not shown: His6, N-terminal, cleaved
B5: hYAP^50-171 Leu68Ala (domain or fragment, human, UniProt P46937-1 50-171, looked up)
chain: B2 chain with L19A
notes: YAP (Yes-associated protein), human, residues 50-171 of NM_001130145.2; also called hYAP Leu68Ala; source: E. coli NiCo21 (DE3), purified (HisTrap, tag cleaved by HRV 3C protease, Resource S, Superdex 75); not shown: His6, N-terminal, cleaved
B6: hYAP^50-171 Leu91Ala (domain or fragment, human, UniProt P46937-1 50-171, looked up)
chain: B2 chain with L42A
notes: YAP (Yes-associated protein), human, residues 50-171 of NM_001130145.2; also called hYAP Leu91Ala; source: E. coli NiCo21 (DE3), purified (HisTrap, tag cleaved by HRV 3C protease, Resource S, Superdex 75); not shown: His6, N-terminal, cleaved
B7: hYAP^50-171 Met86Ala (domain or fragment, human, UniProt P46937-1 50-171, looked up)
chain: B2 chain with M37A
notes: YAP (Yes-associated protein), human, residues 50-171 of NM_001130145.2; also called hYAP Met86Ala; source: E. coli NiCo21 (DE3), purified (HisTrap, tag cleaved by HRV 3C protease, Resource S, Superdex 75); not shown: His6, N-terminal, cleaved
B8: hYAP^50-171 Phe69Ala (domain or fragment, human, UniProt P46937-1 50-171, looked up)
chain: B2 chain with F20A
notes: YAP (Yes-associated protein), human, residues 50-171 of NM_001130145.2; also called hYAP Phe69Ala; source: E. coli NiCo21 (DE3), purified (HisTrap, tag cleaved by HRV 3C protease, Resource S, Superdex 75); not shown: His6, N-terminal, cleaved
B9: hYAP^50-171 Phe95Ala (domain or fragment, human, UniProt P46937-1 50-171, looked up)
chain: B2 chain with F46A
notes: YAP (Yes-associated protein), human, residues 50-171 of NM_001130145.2; also called hYAP Phe95Ala; source: E. coli NiCo21 (DE3), purified (HisTrap, tag cleaved by HRV 3C protease, Resource S, Superdex 75); not shown: His6, N-terminal, cleaved
B10: hYAP^50-171 Phe96Ala (domain or fragment, human, UniProt P46937-1 50-171, looked up)
chain: B2 chain with F47A
notes: YAP (Yes-associated protein), human, residues 50-171 of NM_001130145.2; also called hYAP Phe96Ala; source: E. coli NiCo21 (DE3), purified (HisTrap, tag cleaved by HRV 3C protease, Resource S, Superdex 75); not shown: His6, N-terminal, cleaved
B11: hYAP^50-171 Ser94Ala (domain or fragment, human, UniProt P46937-1 50-171, looked up)
chain: B2 chain with S45A
notes: YAP (Yes-associated protein), human, residues 50-171 of NM_001130145.2; also called hYAP Ser94Ala; source: E. coli NiCo21 (DE3), purified (HisTrap, tag cleaved by HRV 3C protease, Resource S, Superdex 75); not shown: His6, N-terminal, cleaved

target: wt hYAP (full length) (human, UniProt P46937 1-504); test: cell-based or functional assay; settings: not given
Sequence (P46937 whole entry): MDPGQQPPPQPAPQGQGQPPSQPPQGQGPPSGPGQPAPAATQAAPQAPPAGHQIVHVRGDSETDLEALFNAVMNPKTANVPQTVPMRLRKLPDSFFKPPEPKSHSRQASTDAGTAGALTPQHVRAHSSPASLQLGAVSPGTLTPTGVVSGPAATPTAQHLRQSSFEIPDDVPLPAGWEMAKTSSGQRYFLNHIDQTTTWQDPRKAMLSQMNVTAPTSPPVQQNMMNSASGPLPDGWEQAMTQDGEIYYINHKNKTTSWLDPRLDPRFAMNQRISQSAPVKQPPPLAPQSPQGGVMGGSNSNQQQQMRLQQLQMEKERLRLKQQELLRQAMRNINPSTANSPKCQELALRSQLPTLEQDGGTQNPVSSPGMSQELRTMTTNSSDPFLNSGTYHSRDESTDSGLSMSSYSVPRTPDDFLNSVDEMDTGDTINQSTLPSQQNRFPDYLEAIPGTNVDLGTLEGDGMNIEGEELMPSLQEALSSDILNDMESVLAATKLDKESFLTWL

| Binder | MCAT_Luc reporter luciferase activity in HEK293::MCAT_Luc cells co-transfected with wt hYAP; against wt hTEAD4 |
| --- | --- |
| B1 | ~4 fold reduction |

target: T1, N-Avitagged wt hTEAD4^217-434 (human, UniProt Q15561 217-434, acylated at Cys367 (100%)); test: SPR; N-Avitagged hTEAD4^217-434 proteins immobilised on Series S Sensor Chip SA, YAP^50-171 proteins as analyte; Biacore T200; 25°C (298 K); 50 mM HEPES, 100 mM KCl, 0.25 mM TCEP, 1 mM EDTA, 0.05% Tween 20, 0.05% BSA, 2% DMSO, pH 7.4; Kd from equilibrium data (Kd^eq); upper limit for Kd^eq 200 µM; settings: both partners purified
T1 construct: TEAD4 (TEA/ATTS domain transcription factor 4), human, residues 217-434; held on streptavidin (SA) chips; also called Wild type; source: purified; not shown: Avitag, N-terminal, kept
T1 sequence (Q15561 217-434): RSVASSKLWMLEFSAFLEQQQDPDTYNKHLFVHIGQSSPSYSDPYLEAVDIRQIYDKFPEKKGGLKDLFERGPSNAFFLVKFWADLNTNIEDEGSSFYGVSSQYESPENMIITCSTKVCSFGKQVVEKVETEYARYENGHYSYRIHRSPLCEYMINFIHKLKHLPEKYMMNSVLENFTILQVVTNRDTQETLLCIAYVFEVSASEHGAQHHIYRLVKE

| Binder | Kd |
| --- | --- |
| B2 | 0.018 µM |
| B3 | 27.4 µM |
| B4 | 0.794 µM |
| B5 | 0.464 µM |
| B6 | 30.6 µM |
| B7 | 2.08 µM |
| B8 | 6.45 µM |
| B9 | 26 µM |
| B10 | 4.75 µM |
| B11 | 5.62 µM |
